The subject of assay [1] is CAFs. Nature of the assay: Cytokine secretion by CAFs treated with sNG1 or NetG1 peptides (ELISA). The format is cell-based. Particulars: CAFs treated 7 days, media conditioned 2 days, vs CON. Here is the method:
1.6×10^5 Control (CON) or NetrinG1 Ligand knockdown (NGL1 KD) CAFs were plated into 24 well plates and allowed to produce matrices in the presence of 50 μg/mL of ascorbic acid and were either untreated or treated with either soluble NetrinG1 (sNG1), NetG1 peptide corresponding to a domain known to engage with NGL1 (NPYMSNNE; SEQ ID NO:26; (FITC)—Ba-Asn-Pro-Tyr-Met-Ser-Asn-Asn-Glu-(NH2)), hypothesized to modestly prevent NetG1/NGL1 interaction (peptide), or a modified NetG1 peptide (NPTMSNNE; SEQ ID NO:27; (FITC)—Ba-Asn-Pro-Thr-Met-Ser-Asn-Asn-Glu-(NH2)) suspected to strongly prevent NetG1/NGL1 engagement (mutant), for 7 days. […] The media was then replaced with serum- and glutamine-free media and CAFs were allowed to condition the media for 2 days. Conditioned media was collected from each well and subjected to ELISA for the measurement of cytokine (TGF-β, IL-6, and IL-8) secretion. […] 01, *** p<. 001, **** p<. 0001. N=3-6.
For orientation: An ELISA detects its analyte on a solid surface through an enzyme-linked reagent.

A further assay relates to virus infected neurons. Briefly: Synapse-dependent viral transmission between neurons. The format is cell-based. Conditions: neurons only, FIG. 3A/3C. Here is the method:
(§1) Viral transmission was used as a test to investigate the formation of functional synapses. […] The same experiment, as in Panel A, was conducted, except that virus (red) infected neurons (green) were plated onto a CAF culture bed (evident in transmitted microscopy images shown in bottom panels) to assess heterotypic neuron-CAF functional synapse formation (evidence by red virus spread into CAFs) while untreated (left) or treated with recombinant NGL1 (middle) or NetG1 (right) (Panel B).

The next assay relates to CAF EVs. Nature of the assay: Clustering of CAF-secreted EVs treated after collection. Conditions: CAF EVs incubated with the agent following their collection.
Assay [2] concerns CAFs. Nature of the assay: CAF blebbing under 3D conditions. The format is cell-based, human. An excerpt:
The phenotype is believed to indicate fibroblastic function after NGL1 engagement from other cells (like tumor cells). Similar effects were observed when cancer cells were co-cultured with CAFs using CAF-derived matrices as culturing scaffolds.

Assay [3] concerns CAFs. Briefly: EV production by CAFs treated with recombinant NGL1. The format is cell-based.
For the next assay, the system named is PDAC cancer cells. Nature of the assay: Rescue of starvation-induced death of PDAC cancer cells by CAF-produced EVs. The format is cell-based. The source says: PDAC cells die in the absence of nutrition but can be rescued using EVs secreted by intact CAFs. If CAFs are deficient in NetG1 expression, the resultant EVs fail to rescue PDAC cells from starvation. […] The pharmaceutical agents set forth herein will prevent the NetG1/NGL1 engagement and, thus, serve as therapeutics that will assure PDAC cells will not survive under nutritional stress as in vivo.

For assay [4], the system named is virus infected neurons plated onto a CAF culture bed. Nature of the assay: Heterotypic neuron-CAF functional synapse formation (virus spread into CAFs). The format is cell-based. Conditions: FIG. 3B/3D. Here is the method:
as §1

Assay [5] concerns T cells from murine spleens. Briefly: T cell activation with CD3/CD28. The format is cell-based. Particulars: recombinant NetG1 present during activation.

For the molecule “NPTMSNNE (NetG1 polypeptide) [SEQ ID NO:27]”, in the assay on CAFs [1], the “secreted IL-6” value is on record as “significant decreases”, the “secreted IL-8” value is on record as “significant decreases” and the “secreted TGF-β” value was “significant decreases”.
Take “NPYMSNNE (NetG1 polypeptide) [SEQ ID NO:26, NetG1 peptide corresponding to a domain known to engage with NGL1]”: in the assay with CAFs [1], the “secreted IL-6” value is given as “significant decreases”, the “secreted IL-8” value is “significant decreases” and the “secreted TGF-β” value was “significant decreases”.

B1: recombinant NGL1: recombinant Netrin G1 ligand (NGL1) protein added to EVs or cell cultures (protein)
chain: QTCPSVCSCSNQFSKVICVRKNLREVPDGISTNTRLLNLHENQIQIIKVNSFKHLRHLEILQLSRNHIRTIEIGAFNGLANLNTLELFDNRLTTIPNGAFVYLSKLKELWLRNNPIESIPSYAFNRIPSLRRLDLGELKRLSYISEGAFEGLSNLRYLNLAMCNLREIPNLTPLIKLDELDLSGNHLSAIRPGSFQGLMHLQKLWMIQSQIQVIERNAFDNLQSLVEINLAHNNLTLLPHDLFTPLHHLERIHLHHNPWNCNCDILWLSWWIKDMAPSNTACCARCNTPPNLKGRYIGELDQNYFTCYAPVIVEPPADLNVTEGMAAELKCRASTSLTSVSWITPNGTVMTHGAYKVRIAVLSDGTLNFTNVTVQDTGMYTCMVSNSVGNTTASATLNVTAATTTPFSYFSTVTVETMEPSQDEARTTDNNVGPTPVVDWETTNVTTSLTPQSTRSTEKTFTIPVTDINSGIPGIDEVMKTTKIIIGCFVAITLMAAVMLVIFYKMRKQHHRQNHHAPTRTVEIINVDDEITGDTPMESHLPMPAIEHEHLNHYNSYKSPFNHTTTVNTINSIHSSVHEPLLIRMNSKDNVQETQI
On to B1, for which, in the assay with virus infected neurons, the “virus transmission via functional synapses between neurons” value is given as “limited virus transmission”. Besides, the EV clustering result in the assay with CAF EVs is listed as “enables small NetG1 positive (i.e., exomeres)”. Moreover, in the assay on CAFs [2] (3D conditions that enable NetrinG1 expression in CAFs), the “CAF blebbing (membrane ruffling or protruding)” value is “induced CAF blebbing”. Moreover, the “CAF blebbing in NetG1 KO CAFs” value in the assay on CAFs [2] (same treatment, NetG1 KO CAFs) is given as “blebbing was not observed”. In addition, in the assay with CAFs [3], the “clustering of EVs produced by treated CAFs” value is “induced some clustering” and the “number of EVs produced” value was “production of increased numbers of EVs”. Further, in the assay on PDAC cancer cells (EVs pre-incubated with recombinant NGL1), the “effectiveness of CAF-produced EVs in rescuing starvation-induced death of PDAC cancer cells” value is listed as “tends to decrease”. The “functional synapses between neurons and fibroblasts (virus spread into CAFs)” value in assay [4] is “prevented”.

B2: recombinant NetG1: recombinant Netrin G1 protein added to EVs or cell cultures (protein)
chain: HYDLCKTQIYTEEGKVWDYMACQPESTDMTKYLKVKLDPPDITCGDPPETFCAMGNPYMCNNECDASTPELAHPPELMFDFEGRHPSTFWQSATWKEYPKPLQVNITLSWSKTIELTDNIVITFESGRPDQMILEKSLDYGRTWQPYQYYATDCLDAFHMDPKSVKDLSQHTVLEIICTEEYSTGYTTNSKIIHFEIKDRFAFFAGPRLRNMASLYGQLDTTKKLRDFFTVTDLRIRLLRPAVGEIFVDELHLARYFYAISDIKVRGRCKCNLHATVCVYDNSKLTCECEHNTTGPDCGKCKKNYQGRPWSPGSYLPIPKGTANTCIPSISSIGNCECFGHSNRCSYIDLLNTVICVSCKHNTRGQHCELCRLGYFRNASAQLDDENVCIECYCNPLGSIHDRCNGSGFCECKTGTTGPKCDECLPGNSWHYGCQPNVCDNELLHCQNGGTCHNNVRCLCPAAYTGILCEKLRCEEAGSCGS
Take B2: in the assay with virus infected neurons, the “virus transmission via functional synapses between neurons” value is “limited virus transmission”. In addition, in the assay with CAF EVs, the EV clustering result was “only clusters exosomes”. The “effectiveness of EVs from NetG1 deficient CAFs (NG1KO) in rescuing starvation-induced death of PDAC cancer cells” value in the assay on PDAC cancer cells (recombinant NetG1 treatment of KRAS-transformed pancreatic cells) was “improves the effectiveness of EVs”. For the same molecule, the “T cell activation (proliferation) by CD3/CD28” value in assay [5] is on record as “activation is prevented”. The “functional synapses between neurons and fibroblasts (virus spread into CAFs)” value in assay [4] is given as “prevented”.

For the origin of these results see US12637502B2, “Netrin G1 polypeptides” (Institute For Cancer Research, priority 2019, dated 2026).
